Target: target antigen of trastuzumab on the target cells (UniProt P04626)
Assay: flow cytometry on cells

binding result: binds
B1: meditope-enabled trastuzumab (antibody, V domains shown)
VH: not shown
VL: DIQMTQSPILLSASVGDRVTITCRASQDVNTAVAWYQQRTNGSPRLLIYSASFLYSGVPSRFSGSRSGTDFTLTISSLQPEDIADYYCQQHYTTPPTFGAGTKVEIK

Reference: article PMC6827484 (Methods in molecular biology (Clifton, N.J.), 2019)
